Experimental findings from publication PMC10403730, “PABPN1 aggregation is driven by Ala expansion and poly(A)-RNA binding, leading to CFIm25 sequestration that impairs alternative polyadenylation” are described below.

For this data set, the target named is T1, EGFP-PABPN1-10A-ΔCT (Homo sapiens, UniProt Q86U42 1-254).
T1 sequence: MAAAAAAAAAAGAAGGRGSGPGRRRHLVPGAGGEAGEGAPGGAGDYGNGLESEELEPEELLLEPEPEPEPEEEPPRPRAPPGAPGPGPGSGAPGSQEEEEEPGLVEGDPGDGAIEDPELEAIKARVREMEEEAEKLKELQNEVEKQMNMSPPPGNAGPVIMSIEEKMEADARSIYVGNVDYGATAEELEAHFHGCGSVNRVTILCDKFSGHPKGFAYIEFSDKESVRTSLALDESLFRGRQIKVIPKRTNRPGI
The data set can be described thus: EMSA; 2 nM dA50, 0-5 uM protein; 50 mM Tris-HCl, 150 mM NaCl, 2 mM MgCl2, pH 7.5, 30 min at room temperature; 6% native gel. Conditions: protein: recombinant; tags: N-terminal EGFP, C-terminal His; label: 5'-Cy5; single-stranded.

For AAAAAAAAAAAAAAAAAAAAAAAAAAAAAAAAAAAAAAAAAAAAAAAAAA (ssDNA) [Cy5-dA50], the binding result is “binds”.
